Reference: ChEMBL document CHEMBL2073795, “Secretory mechanisms of grepafloxacin and levofloxacin in the human intestinal cell line caco-2” (J Pharmacol Exp Ther, 2000)

System: Cc1c(F)c(N2CCNC(C)C2)cc2c1c(=O)c(C(=O)O)cn2C1CC1
Assay: TP_TRANSPORTER: transepithelial transport (basal to apical) in Caco-2 cells
Type: functional, cell-based

Which Km does the source give for “ATP-dependent translocase ABCB1 (Homo sapiens)” here?
Its Km is 580 µM.
